The source of these data is patent publication US20180282425A1.

Like-named read-outs stand apart in the source and are kept apart here.

For assay [1], the target named is C5a receptor C5aR (CD88) on human blood neutrophils (human) (UniProt P21730). Put plainly: cell-based or functional assay.
Assay [2] shares this target. The assay can be described thus: cell-based or functional assay. The source holds these as a separate data set.

Sequence of C5a receptor C5aR (CD88) on human blood neutrophils (human) (P21730 whole entry): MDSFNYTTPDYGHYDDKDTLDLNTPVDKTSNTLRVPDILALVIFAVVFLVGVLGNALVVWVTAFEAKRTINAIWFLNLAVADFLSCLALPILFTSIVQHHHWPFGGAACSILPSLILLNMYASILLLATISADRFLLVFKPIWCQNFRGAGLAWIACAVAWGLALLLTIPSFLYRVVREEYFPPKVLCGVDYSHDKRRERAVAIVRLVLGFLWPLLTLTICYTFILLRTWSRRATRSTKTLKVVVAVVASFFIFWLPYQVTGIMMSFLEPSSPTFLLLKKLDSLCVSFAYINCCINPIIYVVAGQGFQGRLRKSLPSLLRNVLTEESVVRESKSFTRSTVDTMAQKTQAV

For “recombinant human C5a (from UniProt P01031 678-751) (ligand)”, the figures for the CD11b (mean MFI) on blood neutrophils; huPP|rhC5a (20 nM), no blocker in assay [1] and in assay [2] were 8330 MFI and 6330 MFI, respectively.
Take PMX-53 (peptide): in assay [1], the Blocking activity (%) on CD11b upregulation; Pat. 088|PMX 53 (20 µM) is 104%, the Blocking activity (%) on CD11b upregulation; Pat. 092|PMX 53 (20 µM) is 109%, the Blocking activity (%) on CD11b upregulation; huPP|rhC5a|PMX 53 (20 µM) was 108% and the CD11b (mean MFI); Pat. 088|PMX 53 (20 µM) is 2030 MFI. For the same substance, in assay [1], the CD11b (mean MFI); Pat. 092|PMX 53 (20 µM) came out at 1910 MFI and the CD11b (mean MFI); huPP|rhC5a|PMX 53 (20 µM) worked out at 1850 MFI. In assay [2], this substance gave a Blocking activity (%) on CD11b upregulation; Pat. 088|PMX 53 (50 nM) of 55.5%, a Blocking activity (%) on CD11b upregulation; Pat. 092|PMX 53 (50 nM) of 56.7%, a Blocking activity (%) on CD11b upregulation; huPP|rhC5a|PMX 53 (50 nM) of 50.3% and a CD11b (mean MFI); Pat. 088|PMX 53 (50 nM) of 4730 MFI. In assay [2], this substance gave a CD11b (mean MFI); Pat. 092|PMX 53 (50 nM) of 4660 MFI and a CD11b (mean MFI); huPP|rhC5a|PMX 53 (50 nM) of 4240 MFI.
As for anti-C5aR (CD88) antibody Clone 7H110, in assay [2], the Blocking activity (%) on CD11b upregulation; Pat. 088|Clone 7H110 (50 nM) is 75.7%, the Blocking activity (%) on CD11b upregulation; Pat. 092|Clone 7H110 (50 nM) stood at 78.7%, the Blocking activity (%) on CD11b upregulation; huPP|rhC5a|Clone 7H110 (50 nM) was found to be 70.7% and the CD11b (mean MFI); Pat. 088|Clone 7H110 (50 nM) is 3560 MFI. Also, in assay [2], the CD11b (mean MFI); Pat. 092|Clone 7H110 (50 nM) is 3390 MFI and the CD11b (mean MFI); huPP|rhC5a|Clone 7H110 (50 nM) amounted to 3380 MFI.
Regarding anti-C5aR (CD88) antibody Clone S5/1, in assay [2], the Blocking activity (%) on CD11b upregulation; Pat. 088|Clone S5/1 (50 nM) was 72.7%, the Blocking activity (%) on CD11b upregulation; Pat. 092|Clone S5/1 (50 nM) is 75.9%, the Blocking activity (%) on CD11b upregulation; huPP|rhC5a|Clone S5/1 (50 nM) was determined as 73% and the CD11b (mean MFI); Pat. 088|Clone S5/1 (50 nM) came out at 3740 MFI. In assay [2], this substance showed a CD11b (mean MFI); Pat. 092|Clone S5/1 (50 nM) of 3560 MFI and a CD11b (mean MFI); huPP|rhC5a|Clone S5/1 (50 nM) of 3290 MFI.
